Results reported in PMC9097636, “FOXO transcription factors differ in their dynamics and intra/intermolecular interactions” (Current Research in Structural Biology, 2022).

Columns and labels:
Experiment in all cases: NMR titration; 1H,15N HSQC of 50 uM 15N-labelled FH domain, unlabelled CR3 added in trans (25 uM or 50 uM); 50 mM NaH2PO4/Na2HPO4 pH 6.5, 0.04% NaN3, 5 mM DTT; 25 C; read-out chemical shift perturbations and line broadening
Conditions in all cases: both partners purified
[1] = molecular target: T1, FOXO1 forkhead (FH) domain, amino acids 143 to 270 (human, UniProt Q12778 143-270)
T1 construct: human FOXO1 (Forkhead box O1), Uniprot Q12778, amino acids 143 to 270, forkhead domain; Uniformly 15N-labelled in the NMR titrations; Cloned into the vector pETM11-ZZ-His6 via NcoI/BamHI; also called FOXO1^FH; FOXO1 FH domain; source: E. coli BL21-DE3 Star, purified (Ni-NTA, TEV cleavage, second Ni-NTA, SEC)
T1 sequence (Q12778 143-270): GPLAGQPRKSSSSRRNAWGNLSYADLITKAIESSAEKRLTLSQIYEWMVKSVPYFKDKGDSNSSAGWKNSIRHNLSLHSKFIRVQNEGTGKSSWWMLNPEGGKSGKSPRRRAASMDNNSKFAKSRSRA

[2] = molecular target: T2, FOXO6 forkhead (FH) domain, amino acids 71 to 191 (human, UniProt A8MYZ6 71-191)
T2 construct: human FOXO6 (Forkhead box O6), Uniprot A8MYZ6, amino acids 71 to 191, forkhead domain; Uniformly 15N-labelled in the NMR titrations; Cloned into the vector pETM11-ZZ-His6 via NcoI/BamHI; also called FOXO6^FH; FOXO6 FH domain; source: E. coli BL21-DE3 Star, purified (Ni-NTA, TEV cleavage, second Ni-NTA, SEC)
T2 sequence (A8MYZ6 71-191): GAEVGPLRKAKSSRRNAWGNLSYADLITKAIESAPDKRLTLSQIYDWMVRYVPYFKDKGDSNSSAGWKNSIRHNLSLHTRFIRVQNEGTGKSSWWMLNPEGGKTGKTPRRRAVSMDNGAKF

[3] = molecular target: T3, FOXO3 forkhead (FH) domain, amino acids 141 to 260 (human, UniProt O43524 141-260)
T3 construct: human FOXO3 (Forkhead box O3), Uniprot O43524, amino acids 141 to 260, forkhead domain; Uniformly 15N-labelled in the NMR titrations; Cloned into the vector pETM11-ZZ-His6 via NcoI/BamHI; also called FOXO3^FH; FOXO3 FH domain; source: E. coli BL21-DE3 Star, purified (Ni-NTA, TEV cleavage, second Ni-NTA, SEC)
T3 sequence (O43524 141-260): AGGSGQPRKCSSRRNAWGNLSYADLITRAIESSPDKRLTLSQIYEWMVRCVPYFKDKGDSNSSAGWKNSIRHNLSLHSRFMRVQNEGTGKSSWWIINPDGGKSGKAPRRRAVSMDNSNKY

binding result [1] | binding result [2] | binding result [3] | Binder
binds | binds |  | FOXO6 conserved region 3 (CR3, transactivation domain), amino acids 418 to 472 (domain or fragment, human, UniProt A8MYZ6 418-472, looked up, human FOXO6, Uniprot A8MYZ6, amino acids 418 to 472, CR3; Unlabelled in the titrations; also called FOXO6^CR3; CR3 of FOXO6; source: E. coli BL21-DE3 Star, lysed in 6 M urea, purified (Ni-NTA, TEV cleavage, second Ni-NTA, SEC)) YAAAAAGPLGAAPDRFPADLDLDMFSGSLECDVESIILNDFMDSDEMDFNFDSAL
binds | binds | binds | YGRMGLLHQEKLPSDLDGMFIERLDCDMESIIRNDLMDGDTLDFNFDNVL (domain or fragment, human, UniProt Q12778 587-636, looked up, human FOXO1, Uniprot Q12778, amino acids 587 to 636, CR3; Unlabelled in the titrations; also called FOXO1^CR3; CR3 of FOXO1; source: E. coli BL21-DE3 Star, lysed in 6 M urea, purified (Ni-NTA, TEV cleavage, second Ni-NTA, SEC)) [FOXO1 conserved region 3 (CR3, transactivation domain), amino acids 587 to 636]
